Experiments:
[1] = target: T1, human TIM-3, full length, on cells (human, UniProt Q8TDQ0 22-301); assay: FACS, CHOK1-hTIM-3 cells; antibody 8 nM
T1 construct: Also used here for native TIM-3 on PBMC in the functional rows; also called CHOK1-hTIM-3; HEK293-h TIM-3
T1 sequence: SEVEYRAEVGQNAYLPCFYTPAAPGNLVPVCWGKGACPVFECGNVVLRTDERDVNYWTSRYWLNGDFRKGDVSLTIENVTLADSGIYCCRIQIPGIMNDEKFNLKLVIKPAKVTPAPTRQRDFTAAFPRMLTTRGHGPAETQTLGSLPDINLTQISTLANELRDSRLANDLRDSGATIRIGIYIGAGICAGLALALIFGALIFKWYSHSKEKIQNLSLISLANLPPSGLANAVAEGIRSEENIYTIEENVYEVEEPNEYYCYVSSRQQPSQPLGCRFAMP
Excerpt: (§1) The pIRES plasmid containing the full-length nucleotide sequence encoding human TIM-3 as described in Example 1 was transfected into CHOK1 cell line to obtain a CHOK1 stable cell line containing human TIM-3 (herein referred to as CHOK1-hTIM-3 stable cell line). The pIRES plasmid containing the full-length gene of monkey TIM-3 was transfected into CHOK1 cell line to construct a CHOK1 stable cell line containing monkey TIM-3 (herein referred to as CHOK1-cTIM-3 stable cell line). The CHOK1-hTIM-3 stable cell line and CHOK1-cTIM-3 stable cell line were expanded to a confluence of 90% in a T-75 cell culture flask. The medium was aspirated, and the cells were washed with HBSS (Hanks' Balanced Salt Solution) 1-2 times, and then treated with an enzyme-free cell dissociation solution (Versene solution: Life technology) and the cells were collected. The cells were washed with HBSS buffer for 1-2 times. After counted, the cells were diluted with HBSS to 1-2×10⁶ cells per ml, added with 1% goat serum blocking solution, incubated on ice for 20-30 minutes, and then washed with HBSS by centrifugation 2 times. The collected cells were suspended in the FACS buffer (HBSS+1% BSA) to 2×10⁶ cells/ml, added as 100 microliters per well to a 96-well FACS reaction plate, added with 100 microliters per well of the antibody sample to be tested, incubated on ice for 1-2 hours. The plate was washed twice with the FACS buffer by centrifugation, added with 100 microliters of fluorescent (Alexa 488)-labeled secondary antibodies per well, and incubated on ice for 0.5-1.0 hours. The plate was washed 2-3 times with FACS buffer by centrifugation, added with 100 μl fixative solution (4% Paraformaldehyde) per well to suspend the cells. 5-10 minutes later, it was washed 1-2 times with FACS buffer by centrifugation. The cells were suspended with 100 microliters of FACS buffer, FACS (FACSCalibur, BD) was used for detection and the results were analyzed. The results are shown in FIGS. 7 and 8, Tables 7 and 8, wherein the IgG control is rat IgG, and the data in the table are the average fluorescence intensity values of the cell populations measured by MFI.

[2] = target: T1, human TIM-3, full length, on cells; assay: FACS, CHOK1-hTIM-3 cells; antibody 200 nM
Excerpt: as §1

[3] = target: T1, human TIM-3, full length, on cells; assay: FACS, CHOK1-hTIM-3 cells; antibody 0.32 nM
Excerpt: as §1

B1: 18D2H2 (TIM-3 antibody purified from hybridoma, chimeric antibody of Example 2) (antibody, V domains shown)
VH: EVQLVESGGDLVQPGGSLRLSCAASGFTFSTYWMTWVRQAPGRGLEWVANIKQDGSAKYYVDSVKGRFTLSRDDAKNSLYLQMNSLRAEDTAVYYCARGSNWFDYWGQGTLVTVSS
VL: ETVMTQSPATLSVSPGERATLSCRANQNVYSNLAWYQQKPGQAPRLLIYDASTRATGFPARFSGSGSGTEFTLTISSLQSEDFAVYYCQQYNNWPLTFGGGTKVEIK
notes: From hybridoma of Harbour H2L2 transgenic mice: human variable regions, rat constant regions
Q: B1 was tested. Which Mean fluorescence intensity [1] did it give?
A: 107

Q: And the Mean fluorescence intensity [2]?
A: 212

Q: What about the Mean fluorescence intensity [3] of the same binder?
A: 15.6

B2: 134H3G6 (TIM-3 antibody purified from hybridoma, chimeric antibody of Example 2) (antibody, V domains shown)
VH: EVQLVESGGGLVQPGGSLRLSCAASGFTFSNSWMTWVRQAPGKGLEWVANIKQAGTEKYYVDSVKGRFTISRDNAKNSLYLQMNSLRAEDTAVYYCNSGSNYFDYWGQGTLVTVSS
VL: EIVMTQSPATLSVSPGERATLSCRARQNFYSNLAWYQQKPGQAPRLLIYGASTRATGIPARFSGSGSGTEFTLTISSLQSEDFAVYYCQQYNNWPLTFGGGTKVEIK
notes: as for B1
Q: How did the Mean fluorescence intensity [1] turn out when B2 was run?
A: 139

Q: And the Mean fluorescence intensity [2]?
A: 261

Q: And the Mean fluorescence intensity [3]?
A: 17.7

B3: 57F4E5 (TIM-3 antibody purified from hybridoma, chimeric antibody of Example 2) (antibody, V domains shown)
VH: EVQLVESGGGLVQPGGSLRLSCAASGFTFSSYWMSWVRQAPGKGLEWVANIKQDGSEKYYVDSVKGRFTISRDSAKNSLYLQMNSLRAEDTAMYFCARDSNFFDYWGQGTLVTVSS
VL: ETVMTQSPATLSVSPGERATLSCRASQSVSSNLAWYQRKPGQAPRLLIYFSSTRATGIPARFSGSGSGTEFTLTISSLQSEDFAVYYCQQYNNWPLTFGGGTKVEIK
notes: as for B1
Q: B3 was tested. Which Mean fluorescence intensity [1] did it give?
A: 478

Q: What about the Mean fluorescence intensity [2] of the same binder?
A: 485

Q: What about the Mean fluorescence intensity [3] of the same binder?
A: 177

B4: 7A4F10 (TIM-3 antibody purified from hybridoma, chimeric antibody of Example 2) (antibody, V domains shown)
VH: EVQLLESGGGLVQPGGSLRLSCAASGFTFRTHLISWVRQAPGKGLEWVAAITGSGGSTYYADSVKGRFIISRDNSKNTLFLQMNSLRAEDTAVYYCAKDGGSGSYDDFWGQGTLVTVSS
VL: ETVLTQSPVTLSLSPGERATLSCRASQSVGSYLAWYQQKPGQAPRLLIYDASNRATGIPARFSGSGSGTDFTLTISSLEPEDFAVYYCQQRSNWPPTFGQGTKVEIK
notes: as for B1
Q: For B4, which Mean fluorescence intensity [1] is on record?
A: 56.2

Q: What about the Mean fluorescence intensity [2] of the same binder?
A: 145

Q: And the Mean fluorescence intensity [3]?
A: 6.8

B5: 215A8F2 (TIM-3 antibody purified from hybridoma, chimeric antibody of Example 2) (antibody, V domains shown)
VH: QVQLQQWGAGLLKPSETLSLTCTVYGGSFSGYYWNWIRQPPGKGLEWLGEINHSGSTNYNPSLKRRVTISVDTSKNQFSLKLSSVTAADTAVYYCARVYYYGPFDFWGQGTLVTVSS
VL: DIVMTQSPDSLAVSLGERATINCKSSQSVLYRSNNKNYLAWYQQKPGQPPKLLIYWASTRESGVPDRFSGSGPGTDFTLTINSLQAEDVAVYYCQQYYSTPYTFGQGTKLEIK
notes: as for B1
Q: How did the Mean fluorescence intensity [1] turn out when B5 was run?
A: 608

Q: What about the Mean fluorescence intensity [2] of the same binder?
A: 613

Q: What about the Mean fluorescence intensity [3] of the same binder?
A: 55.6

From US20220033501A1 (SHANGHAI PHARMAEXPLORER, published 2022)
